# Patent US20110118131A1 (published 2011)
# Substitutions are numbered along the chain they refer to. Names may count otherwise.
# T1: Ep-CAM (UniProt P16422 24-265, limits assumed)
# T1 construct: Amine coupled to a CM5 chip in the Biacore assays
# T1 sequence (looked up): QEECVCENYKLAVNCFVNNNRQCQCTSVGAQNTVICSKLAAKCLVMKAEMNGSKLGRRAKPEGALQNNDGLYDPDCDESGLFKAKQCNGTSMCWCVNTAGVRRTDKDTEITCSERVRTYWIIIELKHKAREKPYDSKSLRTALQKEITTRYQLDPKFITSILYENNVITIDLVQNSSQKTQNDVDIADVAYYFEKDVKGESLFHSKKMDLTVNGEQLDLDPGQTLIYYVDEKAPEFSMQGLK
# B1: ING-1 light chain S57Q (Fab, V domains shown)
# VH: QIQLVQSGPELKKPGETVKISCKASGYTFTKYGMNWVKQAPGKGLKWMGWINTYTEEPTYGDDFKGRFAFSLETSASTANLQINNLKSEDTATYFCARFGSAVDYWGQGTSVTVSS
# VL: DIVMTQAAFSNPVTLGTSGSISCRSSKSLLHSNGITYLYWYLQKPGQSPQLLIYQMQNLASGVPDRFSSSGSGTDFTLRISRVEAEDVGVYYCAQNLELPRTFGGGTKLEMKR
# notes: Fab, periplasmic extract
# B2: ING-1 light chain S57Y (Fab, V domains shown)
# VH: B1 VH
# VL: B1 VL with Q57Y
# notes: Fab, periplasmic extract
# B3: ING-1 light chain T36D (Fab, V domains shown)
# VH: B1 VH
# VL: B1 VL with T36D, Q57S
# notes: Fab, periplasmic extract
# B4: ING-1 light chain T36R (Fab, V domains shown)
# VH: B1 VH
# VL: B1 VL with T36R, Q57S
# notes: Fab, periplasmic extract
# B5: ING-1 light chain Y37E (Fab, V domains shown)
# VH: B1 VH
# VL: B1 VL with Y37E, Q57S
# notes: Fab, periplasmic extract
# B6: ING-1 light chain Y37K (Fab, V domains shown)
# VH: B1 VH
# VL: B1 VL with Y37K, Q57S
# notes: Fab, periplasmic extract
# B7: ING-1 light chain Y37N (Fab, V domains shown)
# VH: B1 VH
# VL: B1 VL with Y37N, Q57S
# notes: Fab, periplasmic extract
# B8: ING-1 light chain Y37Q (Fab, V domains shown)
# VH: B1 VH
# VL: B1 VL with Y37Q, Q57S
# notes: Fab, periplasmic extract
# B9: ING-1 light chain Y37S (Fab, V domains shown)
# VH: B1 VH
# VL: B1 VL with Y37S, Q57S
# notes: Fab, periplasmic extract
# B10: ING-1 light chain Y54D (Fab, V domains shown)
# VH: B1 VH
# VL: B1 VL with Y54D, Q57S
# notes: Fab, periplasmic extract
# B11: ING-1 light chain Y54E (Fab, V domains shown)
# VH: B1 VH
# VL: B1 VL with Y54E, Q57S
# notes: Fab, periplasmic extract
# B12: ING-1 light chain Y54H (Fab, V domains shown)
# VH: B1 VH
# VL: B1 VL with Y54H, Q57S
# notes: Fab, periplasmic extract
# B13: ING-1 light chain Y54N (Fab, V domains shown)
# VH: B1 VH
# VL: B1 VL with Y54N, Q57S
# notes: Fab, periplasmic extract
# B14: ING-1 light chain Y54R (Fab, V domains shown)
# VH: B1 VH
# VL: B1 VL with Y54R, Q57S
# notes: Fab, periplasmic extract
# B15: ING-1 light chain Y54S (Fab, V domains shown)
# VH: B1 VH
# VL: B1 VL with Y54S, Q57S
# notes: Fab, periplasmic extract
# B16: XPA23 light chain S53T (Fab, V domains shown)
# VH: EVQLLESGGGLVQPGGSLRLSCAASGFTFSKYFMFWVRQAPGKGLEWVSVISPSGGMTRYADSVKGRFTISRDNSKNTLYLQMNSLRAEDTAVYYCARVGYGGNSDYWGQGTLVTVSS
# VL: DIQMTQSPSSVSASVGDRLTIICRASQDINRWLAWYQQTPGNAPKLLIHSATTLQSGVPSRFSGSGSGTDFTLTINSLQPEDFATYYCQQADSFPLTFGGGTKVEIK
# notes: Single light chain substitution; Fab in periplasmic extract; also called C5A (XPA23) S53T
# B17: XPA23 light chain A91G (Fab, V domains shown)
# VH: B16 VH
# VL: B16 VL with T53S, A91G
# notes: Single light chain substitution; Fab in periplasmic extract; also called C5A (XPA23) A91G
# B18: XPA23 light chain A91I (Fab, V domains shown)
# VH: B16 VH
# VL: B16 VL with T53S, A91I
# notes: Single light chain substitution; Fab in periplasmic extract; also called C5A (XPA23) A91I
# B19: XPA23 light chain A91L (Fab, V domains shown)
# VH: B16 VH
# VL: B16 VL with T53S, A91L
# notes: Single light chain substitution; Fab in periplasmic extract; also called C5A (XPA23) A91L
# B20: XPA23 light chain A91P (Fab, V domains shown)
# VH: B16 VH
# VL: B16 VL with T53S, A91P
# notes: Single light chain substitution; Fab in periplasmic extract; also called C5A (XPA23) A91P
# B21: XPA23 light chain A91T (Fab, V domains shown)
# VH: B16 VH
# VL: B16 VL with T53S, A91T
# notes: Single light chain substitution; Fab in periplasmic extract; also called C5A (XPA23) A91T
# B22: XPA23 light chain A91V (Fab, V domains shown)
# VH: B16 VH
# VL: B16 VL with T53S, A91V
# notes: Single light chain substitution; Fab in periplasmic extract; also called C5A (XPA23) A91V
# B23: XPA23 light chain D92A (Fab, V domains shown)
# VH: B16 VH
# VL: B16 VL with T53S, D92A
# notes: Single light chain substitution; Fab in periplasmic extract; also called C5A (XPA23) D92A
# B24: XPA23 light chain D92G (Fab, V domains shown)
# VH: B16 VH
# VL: B16 VL with T53S, D92G
# notes: Single light chain substitution; Fab in periplasmic extract; also called C5A (XPA23) D92G
# B25: XPA23 light chain D92I (Fab, V domains shown)
# VH: B16 VH
# VL: B16 VL with T53S, D92I
# notes: Single light chain substitution; Fab in periplasmic extract; also called C5A (XPA23) D92I
# B26: XPA23 light chain D92L (Fab, V domains shown)
# VH: B16 VH
# VL: B16 VL with T53S, D92L
# notes: Single light chain substitution; Fab in periplasmic extract; also called C5A (XPA23) D92L
# B27: XPA23 light chain D92P (Fab, V domains shown)
# VH: B16 VH
# VL: B16 VL with T53S, D92P
# notes: Single light chain substitution; Fab in periplasmic extract; also called C5A (XPA23) D92P
# B28: XPA23 light chain D92T (Fab, V domains shown)
# VH: B16 VH
# VL: B16 VL with T53S, D92T
# notes: Single light chain substitution; Fab in periplasmic extract; also called C5A (XPA23) D92T
# B29: XPA23 light chain D92V (Fab, V domains shown)
# VH: B16 VH
# VL: B16 VL with T53S, D92V
# notes: Single light chain substitution; Fab in periplasmic extract; also called C5A (XPA23) D92V
# B30: XPA23 light chain F94A (Fab, V domains shown)
# VH: B16 VH
# VL: B16 VL with T53S, F94A
# notes: Single light chain substitution; Fab in periplasmic extract; also called C5A (XPA23) F94A
# B31: XPA23 light chain F94G (Fab, V domains shown)
# VH: B16 VH
# VL: B16 VL with T53S, F94G
# notes: Single light chain substitution; Fab in periplasmic extract; also called C5A (XPA23) F94G
# B32: XPA23 light chain F94I (Fab, V domains shown)
# VH: B16 VH
# VL: B16 VL with T53S, F94I
# notes: Single light chain substitution; Fab in periplasmic extract; also called C5A (XPA23) F94I
# B33: XPA23 light chain F94L (Fab, V domains shown)
# VH: B16 VH
# VL: B16 VL with T53S, F94L
# notes: Single light chain substitution; Fab in periplasmic extract; also called C5A (XPA23) F94L
# B34: XPA23 light chain F94P (Fab, V domains shown)
# VH: B16 VH
# VL: B16 VL with T53S, F94P
# notes: Single light chain substitution; Fab in periplasmic extract; also called C5A (XPA23) F94P
# B35: XPA23 light chain F94T (Fab, V domains shown)
# VH: B16 VH
# VL: B16 VL with T53S, F94T
# notes: Single light chain substitution; Fab in periplasmic extract; also called C5A (XPA23) F94T
# B36: XPA23 light chain F94V (Fab, V domains shown)
# VH: B16 VH
# VL: B16 VL with T53S, F94V
# notes: Single light chain substitution; Fab in periplasmic extract; also called C5A (XPA23) F94V
# B37: XPA23 light chain L96A (Fab, V domains shown)
# VH: B16 VH
# VL: B16 VL with T53S, L96A
# notes: Single light chain substitution; Fab in periplasmic extract; also called C5A (XPA23) L96A
# B38: XPA23 light chain L96G (Fab, V domains shown)
# VH: B16 VH
# VL: B16 VL with T53S, L96G
# notes: Single light chain substitution; Fab in periplasmic extract; also called C5A (XPA23) L96G
# B39: XPA23 light chain L96I (Fab, V domains shown)
# VH: B16 VH
# VL: B16 VL with T53S, L96I
# notes: Single light chain substitution; Fab in periplasmic extract; also called C5A (XPA23) L96I
# B40: XPA23 light chain L96P (Fab, V domains shown)
# VH: B16 VH
# VL: B16 VL with T53S, L96P
# notes: Single light chain substitution; Fab in periplasmic extract; also called C5A (XPA23) L96P
# B41: XPA23 light chain L96T (Fab, V domains shown)
# VH: B16 VH
# VL: B16 VL with T53S, L96T
# notes: Single light chain substitution; Fab in periplasmic extract; also called C5A (XPA23) L96T
# B42: XPA23 light chain P95A (Fab, V domains shown)
# VH: B16 VH
# VL: B16 VL with T53S, P95A
# notes: Single light chain substitution; Fab in periplasmic extract; also called C5A (XPA23) P95A
# Columns and labels:
# Ep-CAM = molecular target: T1, Ep-CAM; test: Biacore, Fab periplasmic extract
# IL-1β = IL-1β (UniProt P01584 117-269); test: Biacore, Fab periplasmic extract on IL-1β
binder,measurement,setting,value
B1,binding result,Ep-CAM,no binding
B2,binding result,Ep-CAM,no binding
B3,fold difference in affinity vs parental ING-1,Ep-CAM,0.05 fold
B4,binding result,Ep-CAM,no binding
B5,fold difference in affinity vs parental ING-1,Ep-CAM,0.01 fold
B6,fold difference in affinity vs parental ING-1,Ep-CAM,0.02 fold
B7,fold difference in affinity vs parental ING-1,Ep-CAM,0.06 fold
B8,fold difference in affinity vs parental ING-1,Ep-CAM,0.02 fold
B9,fold difference in affinity vs parental ING-1,Ep-CAM,0.09 fold
B10,fold difference in affinity vs parental ING-1,Ep-CAM,0.03 fold
B11,fold difference in affinity vs parental ING-1,Ep-CAM,0.05 fold
B12,binding result,Ep-CAM,no binding
B13,binding result,Ep-CAM,no binding
B14,binding result,Ep-CAM,no binding
B15,fold difference in affinity vs parental ING-1,Ep-CAM,0.9 fold
B16,fold difference in affinity vs original,IL-1β,0.95 fold
B17,binding result,IL-1β,no binding
B18,binding result,IL-1β,no binding
B19,fold difference in affinity vs original,IL-1β,0.39 fold
B20,binding result,IL-1β,no binding
B21,fold difference in affinity vs original,IL-1β,0.67 fold
B22,fold difference in affinity vs original,IL-1β,0.51 fold
B23,fold difference in affinity vs original,IL-1β,0.4 fold
B24,fold difference in affinity vs original,IL-1β,0.26 fold
B25,fold difference in affinity vs original,IL-1β,0.33 fold
B26,fold difference in affinity vs original,IL-1β,0.14 fold
B27,binding result,IL-1β,no binding
B28,fold difference in affinity vs original,IL-1β,0.34 fold
B29,binding result,IL-1β,no binding
B30,binding result,IL-1β,no binding
B31,binding result,IL-1β,no binding
B32,fold difference in affinity vs original,IL-1β,0.88 fold
B33,fold difference in affinity vs original,IL-1β,0.55 fold
B34,fold difference in affinity vs original,IL-1β,0.17 fold
B35,binding result,IL-1β,no binding
B36,fold difference in affinity vs original,IL-1β,0.2 fold
B37,fold difference in affinity vs original,IL-1β,0.26 fold
B38,binding result,IL-1β,no binding
B39,fold difference in affinity vs original,IL-1β,0.67 fold
B40,binding result,IL-1β,no binding
B41,fold difference in affinity vs original,IL-1β,0.06 fold
B42,fold difference in affinity vs original,IL-1β,3.83 fold
